Substitutions are numbered along the chain they refer to.
B1: PaB670076 scFv (scFv, V domains shown)
VH: EVQLLESGGGLVQPGGSLRLSCAASGFTFSSYAMNWVRQAPGKGLEWVSTISYSGSLISYADSVKGRFTISRDNSKNTLYLQMNSLRAEDTAVYYCARINNDPMDVWGQGTLVTVSS
VL: SIELTQPPSVSVSPGQTASITCSGDNLGKKYVQWYQQKPGQSPVLVIYDDSNRPSGIPERFSGSNSGNTATLTISGTQAMDEADYYCHTWDHHHTTGEHNVFGGGTKLTVL
notes: purified scFv; also called ZZ1NHH-F09
B2: PaB670078 scFv (scFv, V domains shown)
VH: B1 VH
VL: B1 VL with T89H, D91H, H92G, H94P, T95H
notes: purified scFv; also called ZZ1OZJ-G03
B3: PaB670093 scFv (scFv, V domains shown)
VH: B1 VH with S54H, G55H, S56H, Y60H
VL: B1 VL with H88Q, H92G, H93N, H94P, H99T
notes: purified scFv; also called ZZ1ODR-H04
B4: PaB670099 scFv (scFv, V domains shown)
VH: B1 VH with S54H, L57H, A61H, K65H, G66H
VL: B1 VL with H88Q, H92G, H93N, H94P, H99T
notes: purified scFv
B5: PaB670080 scFv (scFv, V domains shown)
VH: B1 VH
VL: B1 VL with H88Q, H92G, T95H, H99T, V101H
notes: purified scFv
B6: PaB670094 scFv (scFv, V domains shown)
VH: B1 VH with S54H, S56H, L57H, Y60H, S63H, V64H
VL: B1 VL with H88Q, H92G, H93N, H94P, H99T
notes: purified scFv; also called ZZ1ODS-B08
B7: PaB670081 scFv (scFv, V domains shown)
VH: B1 VH with Y53H, S56H, L57H, Y60H, A61H, V64H, K65H
VL: B1 VL with H88Q, H92G, H93N, H94P, H99T
notes: purified scFv; also called ZZ1OZA-C01
B8: PaB670089 scFv (scFv, V domains shown)
VH: B1 VH with S54H, L57H, Y60H, S63H, K65H
VL: B1 VL with H88Q, H92G, H93N, H94P, H99T
notes: purified scFv; also called ZZ1ODR-C05
B9: PaB670085 scFv (scFv, V domains shown)
VH: B1 VH with S54H, L57H, A61H, D62H, V64H
VL: B1 VL with H88Q, H92G, H93N, H94P, H99T
notes: purified scFv; also called ZZ1ODR-A02
B10: PaB670098 scFv (scFv, V domains shown)
VH: B1 VH with Y53H, S56H, I58H, S59H, V64H, G66H
VL: B1 VL with H88Q, H92G, H93N, H94P, H99T
notes: purified scFv; also called ZZ1ODT-G01
B11: PaB670084 scFv (scFv, V domains shown)
VH: B1 VH with Y53H, S56H, S59H, Y60H, V64H
VL: B1 VL with H88Q, H92G, H93N, H94P, H99T
notes: purified scFv; also called ZZ1PXA-A05
B12: PaB670088 scFv (scFv, V domains shown)
VH: B1 VH with S56H, S59H, S63H, V64H, K65H
VL: B1 VL with H88Q, H92G, H93N, H94P, H99T
notes: purified scFv; also called ZZ1ODR-B11
B13: PaB670083 scFv (scFv, V domains shown)
VH: B1 VH with S52H, Y53H, S56H, I58H, Y60H, S63H
VL: B1 VL with H88Q, H92G, H93N, H94P, H99T
notes: purified scFv; also called ZZ1OZB-H05
B14: PaB670079 scFv (scFv, V domains shown)
VH: B1 VH
VL: B1 VL with H88Q, T89H, H92G, H99T, V101H
notes: purified scFv; also called ZZ1OZJ-G05
B15: PaB670097 scFv (scFv, V domains shown)
VH: B1 VH with S52H, Y53H, S56H, I58H, A61H, D62H, S63H
VL: B1 VL with H88Q, H92G, H93N, H94P, H99T
notes: purified scFv; also called ZZ1ODT-E11
B16: PaB670100 scFv (scFv, V domains shown)
VH: B1 VH with S54H, S56H, L57H, Y60H, D62H, S63H, K65H
VL: B1 VL with H88Q, H92G, H93N, H94P, H99T
notes: purified scFv
B17: PaB670082 scFv (scFv, V domains shown)
VH: B1 VH with Y53H, G55H, D62H, K65H
VL: B1 VL with H88Q, H92G, H93N, H94P, H99T
notes: purified scFv; also called ZZ1OZA-D02
B18: PaB670090 scFv (scFv, V domains shown)
VH: B1 VH with S54H, S56H, L57H, Y60H, S63H, G66H
VL: B1 VL with H88Q, H92G, H93N, H94P, H99T
notes: purified scFv; also called ZZ1ODR-F02
B19: PaB670077 scFv (scFv, V domains shown)
VH: B1 VH
VL: B1 VL with T89H, D91H, H92G, H99T, V101H
notes: purified scFv; also called ZZ1OZJ-C11
B20: PaB670091 scFv (scFv, V domains shown)
VH: B1 VH with Y53H, S56H, S59H, Y60H, A61H, D62H
VL: B1 VL with H88Q, H92G, H93N, H94P, H99T
notes: purified scFv; also called ZZ1ODR-G02
B21: PaB670092 scFv (scFv, V domains shown)
VH: B1 VH with S54H, L57H, A61H, V64H, K65H
VL: B1 VL with H88Q, H92G, H93N, H94P, H99T
notes: purified scFv; also called ZZ1ODR-G11
B22: PaB670095 scFv (scFv, V domains shown)
VH: B1 VH with S54H, S56H, L57H, V64H, K65H, G66H
VL: B1 VL with H88Q, H92G, H93N, H94P, H99T
notes: purified scFv; also called ZZ1ODS-H05
B23: PaB670087 scFv (scFv, V domains shown)
VH: B1 VH with S54H, L57H, S63H, V64H, G66H
VL: B1 VL with H88Q, H92G, H93N, H94P, H99T
notes: purified scFv; also called ZZ1ODR-B05

Molecular target: T1, recombinant biotinylated human PAR2 extracellular domain (residues 1-75), N-terminal AviTag, C-terminal Flag … (human, UniProt P55085 26-75, biotin on the AviTag (enzymatic biotinylation))
T1 construct: also called Bio-human-PAR2 ECD; human PAR2 ECD; not shown: N-terminal AviTag (Avidity LLC); C-terminal Flag and poly Histidine tags
Assay: HTRF competition with Par0067 IgG, pH 7.4, scFv
Protocol: (§1) 5 μl/well of the appropriate pH 4.44 nM Par0067 IgG solution was added to all wells of the relevant assay plate (pH 7.4 and pH 6.0).
(§2) Test scFv Preparation/Addition: [0172] a) For parallel single point HTS of crude un-purified bacterial lysate scFv samples at both pH 7.4 and pH 6.0 samples were first pre-diluted to 40% of their neat concentration using either pH 7.4 or pH 6.0 assay buffer as appropriate. Subsequently 5 μl of 40% pre-diluted sample was then transferred into the appropriate assay (pH 7.4 or pH 6.0) in order to give a final assay sample concentration of 10.0% (in the 20 μl final assay volume). The parent Par0067 scFv was included in all HTS experiments as a control as were specific pH dependent antibodies as those became available (for benchmarking). […] Duplicate 11 point 1:3 serial dilutions then were prepared on 384 well polypropylene Greiner plates in each of the two assay buffers (pH 7.4 & 6.0). 5 μl per well of each serial dilution was transferred from the relevant pH scFv dilution plate to the corresponding assay plate (pH 7.4 and pH 6.0). 5 μl of the appropriate pH assay buffer was added to the total and non-specific wells. The parent Par0067 purified scFv was included in all multipoint dose response IC₅₀ experiments as a control as were specific pH dependent purified scFv as those became available (for benchmarking).
(§3) For multipoint dose response curves % Specific Binding values were plotted versus test purified antibody concentration (scFv or IgG). IC₅₀ values were determined via a sigmoidal dose response inhibition variable slope curve fit (4 parameter logistic equation) using Graphpad Prism Software.

T1 sequence (P55085 26-75): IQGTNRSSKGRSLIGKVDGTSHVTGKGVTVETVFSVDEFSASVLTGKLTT

Binder	IC50 [nM]
B1	46.2
B2	33.3
B3	18.6
B4	12.9
B5	16.6
B6	72.5
B7	51.4
B8	29.9
B9	48.1
B10	65.9
B11	54.5
B12	29.8
B13	45.2
B14	44.2
B15	21.8
B16	20.3
B17	25.4
B18	22.6
B19	55.4
B20	25.2
B21	41.1
B22	20
B23	40.9

Molecular target: T1, recombinant biotinylated human PAR2 …
Assay: HTRF competition with Par0067 IgG, pH 6.0, scFv
Protocol: as §1, §2, §3

Binder	IC50 [nM]
B1	292
B2	319
B3	58.7
B4	62.4
B5	158
B6	237
B7	260
B8	134
B9	155
B10	210
B11	283
B12	115
B13	152
B14	490
B15	77.9
B16	69
B17	77.9
B18	85.5
B19	620
B20	98.9
B21	194
B22	113
B23	131

Molecular target: T1, recombinant biotinylated human PAR2 …
Assay: HTRF competition with Par0067 IgG, scFv
Protocol: as §1, §2, §3

Binder	Fold IC50 (pH 6.0 v pH 7.4) [fold]	Fold IC50 pH 7.4 (Variant v Par0067) [fold]
B1	6.3	14
B2	9.6	10.1
B3	3.2	5.6
B4	4.8	3.9
B5	9.5	5
B6	3.3	22
B7	5.1	15.6
B8	4.5	9.1
B9	3.2	14.6
B10	3.2	20
B11	5.2	16.5
B12	3.8	9
B13	3.4	13.7
B14	11.1	13.4
B15	3.6	6.6
B16	3.4	6.2
B17	3.1	7.7
B18	3.8	6.8
B19	11.2	16.8
B20	3.9	7.6
B21	4.7	12.5
B22	5.7	6.1
B23	3.2	12.4

From patent publication US20180305450A1 (AstraZeneca / MedImmune, published 2018)
